T1: FcγRIIb extracellular domain with C-terminal His tag (human, UniProt P31994 43-217)
T1 construct: extracellular domain; also called FcgRIIb; 2b
T1 sequence (looked up): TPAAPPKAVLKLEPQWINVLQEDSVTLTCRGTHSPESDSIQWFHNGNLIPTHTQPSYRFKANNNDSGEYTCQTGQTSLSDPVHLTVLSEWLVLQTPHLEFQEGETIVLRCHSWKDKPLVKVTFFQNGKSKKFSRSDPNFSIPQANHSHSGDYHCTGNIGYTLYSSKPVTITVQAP

B1: GpH7-B3 variant N325_06M/GpL16-k0 (antibody, human IgG1, kappa)
heavy: not shown
light: DIVMTQSPLSLPVTPGEPASISCQASESLVHSNRNTYLHWYLQKPGQSPQLLIYKVSNRFSGVPDRFSGSGSGTDFTLKISRVEAEDVGVYYCSQNTHVPPTFGQGTKVEIERTVAAPSVFIFPPSDEQLKSGTASVVCLLNNFYPREAKVQWKVDNALQSGNSQESVTEQDSKDSTYSLSSTLTLSKADYEKHKVYACEVTHQGLSSPVTKSFNRGEC
notes: also called Ho Ab N325_06M
B2: GpH7-A5/GpH7-B3 variant G237_02A/GpL16-k0 (antibody, human IgG1, kappa)
heavy 1: not shown
heavy 2: not shown
light: B1 light
notes: also called He Ab G237_02A
B3: GpH7-B3 variant P271_10E/GpL16-k0 (antibody, human IgG1, kappa)
heavy: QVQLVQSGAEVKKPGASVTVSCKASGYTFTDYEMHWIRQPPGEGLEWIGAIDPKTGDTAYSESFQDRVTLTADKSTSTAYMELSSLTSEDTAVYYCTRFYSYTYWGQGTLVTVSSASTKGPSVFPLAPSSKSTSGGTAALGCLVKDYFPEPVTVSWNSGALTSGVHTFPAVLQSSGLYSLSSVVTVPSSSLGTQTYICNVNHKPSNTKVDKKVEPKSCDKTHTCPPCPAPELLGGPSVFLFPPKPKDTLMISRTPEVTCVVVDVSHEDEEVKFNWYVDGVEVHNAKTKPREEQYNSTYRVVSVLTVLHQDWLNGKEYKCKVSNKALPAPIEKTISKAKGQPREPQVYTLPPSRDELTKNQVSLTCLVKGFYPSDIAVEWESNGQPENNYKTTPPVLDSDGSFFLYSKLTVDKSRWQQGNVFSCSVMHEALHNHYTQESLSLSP
light: B1 light
notes: also called Ho Ab P271_10E
B4: GpH7-B3 variant P331_16H/GpL16-k0 (antibody, human IgG1, kappa)
heavy: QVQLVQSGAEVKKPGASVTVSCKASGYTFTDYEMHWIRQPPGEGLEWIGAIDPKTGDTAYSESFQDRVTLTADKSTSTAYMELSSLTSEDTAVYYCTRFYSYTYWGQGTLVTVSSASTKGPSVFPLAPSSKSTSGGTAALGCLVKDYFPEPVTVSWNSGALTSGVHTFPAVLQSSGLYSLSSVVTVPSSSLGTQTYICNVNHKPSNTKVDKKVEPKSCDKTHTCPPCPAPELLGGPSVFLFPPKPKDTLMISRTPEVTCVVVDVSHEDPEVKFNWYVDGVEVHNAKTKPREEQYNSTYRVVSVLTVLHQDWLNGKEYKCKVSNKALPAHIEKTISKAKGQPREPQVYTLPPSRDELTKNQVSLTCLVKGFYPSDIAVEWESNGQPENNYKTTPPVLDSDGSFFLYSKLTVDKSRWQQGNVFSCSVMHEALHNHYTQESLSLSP
light: B1 light
notes: also called Ho Ab P331_16H
B5: GpH7-B3 variant P331_20W/GpL16-k0 (antibody, human IgG1, kappa)
heavy: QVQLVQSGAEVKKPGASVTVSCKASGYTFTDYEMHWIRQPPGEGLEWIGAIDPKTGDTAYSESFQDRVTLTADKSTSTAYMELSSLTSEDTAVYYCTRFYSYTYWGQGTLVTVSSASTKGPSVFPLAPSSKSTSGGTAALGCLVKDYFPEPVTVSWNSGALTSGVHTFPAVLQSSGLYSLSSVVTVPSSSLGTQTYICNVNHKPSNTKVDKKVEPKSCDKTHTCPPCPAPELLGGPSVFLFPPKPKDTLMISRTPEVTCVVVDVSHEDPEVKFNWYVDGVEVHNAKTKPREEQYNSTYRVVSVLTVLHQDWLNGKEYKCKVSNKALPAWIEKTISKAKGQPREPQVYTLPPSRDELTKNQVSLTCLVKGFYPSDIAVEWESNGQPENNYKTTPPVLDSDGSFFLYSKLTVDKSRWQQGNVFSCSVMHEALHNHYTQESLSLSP
light: B1 light
notes: also called Ho Ab P331_20W
B6: GpH7-B3 variant S239_05P/GpL16-k0 (antibody, human IgG1, kappa)
heavy: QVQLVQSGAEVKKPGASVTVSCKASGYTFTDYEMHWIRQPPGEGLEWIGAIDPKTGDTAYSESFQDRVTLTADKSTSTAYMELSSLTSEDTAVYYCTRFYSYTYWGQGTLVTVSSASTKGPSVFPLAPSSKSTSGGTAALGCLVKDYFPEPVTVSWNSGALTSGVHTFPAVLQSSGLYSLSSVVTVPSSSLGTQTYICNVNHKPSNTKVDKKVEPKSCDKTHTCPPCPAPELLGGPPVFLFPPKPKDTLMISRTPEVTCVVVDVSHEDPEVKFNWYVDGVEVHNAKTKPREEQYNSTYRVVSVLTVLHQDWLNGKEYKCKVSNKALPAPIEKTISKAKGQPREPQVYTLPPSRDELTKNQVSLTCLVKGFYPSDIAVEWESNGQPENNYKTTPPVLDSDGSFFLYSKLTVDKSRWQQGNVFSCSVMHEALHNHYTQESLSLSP
light: B1 light
notes: also called Ho Ab S239_05P
B7: GpH7-B3 variant P331_06M/GpL16-k0 (antibody, human IgG1, kappa)
heavy: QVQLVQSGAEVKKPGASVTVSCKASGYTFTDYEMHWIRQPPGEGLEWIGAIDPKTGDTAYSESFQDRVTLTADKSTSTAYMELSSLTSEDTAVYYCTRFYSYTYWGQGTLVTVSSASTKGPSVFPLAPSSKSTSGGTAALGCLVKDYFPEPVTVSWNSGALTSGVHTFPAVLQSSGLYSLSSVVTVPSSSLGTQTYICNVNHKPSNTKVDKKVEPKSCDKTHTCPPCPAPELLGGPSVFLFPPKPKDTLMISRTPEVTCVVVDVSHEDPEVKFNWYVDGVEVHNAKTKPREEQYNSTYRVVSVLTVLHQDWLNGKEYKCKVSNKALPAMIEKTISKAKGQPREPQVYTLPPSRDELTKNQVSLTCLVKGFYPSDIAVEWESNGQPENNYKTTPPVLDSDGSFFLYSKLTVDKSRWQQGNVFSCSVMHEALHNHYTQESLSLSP
light: B1 light
notes: also called Ho Ab P331_06M
B8: GpH7-A5/GpH7-B3 variant G237_06M/GpL16-k0 (antibody, human IgG1, kappa)
heavy 1: not shown
heavy 2: not shown
light: B1 light
notes: also called He Ab G237_06M
B9: GpH7-B3 variant P331_07I/GpL16-k0 (antibody, human IgG1, kappa)
heavy: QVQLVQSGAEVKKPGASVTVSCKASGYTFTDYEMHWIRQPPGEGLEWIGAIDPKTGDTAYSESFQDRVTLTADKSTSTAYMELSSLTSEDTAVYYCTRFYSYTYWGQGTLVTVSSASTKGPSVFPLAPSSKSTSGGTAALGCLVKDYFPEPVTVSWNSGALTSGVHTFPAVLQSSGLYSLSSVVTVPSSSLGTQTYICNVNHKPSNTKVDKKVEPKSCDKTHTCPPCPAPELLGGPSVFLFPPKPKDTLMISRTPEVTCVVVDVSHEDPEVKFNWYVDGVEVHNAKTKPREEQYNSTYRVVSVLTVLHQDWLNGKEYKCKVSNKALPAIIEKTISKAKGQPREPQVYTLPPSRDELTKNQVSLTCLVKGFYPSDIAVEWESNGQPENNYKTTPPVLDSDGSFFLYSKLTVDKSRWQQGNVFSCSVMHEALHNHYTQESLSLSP
light: B1 light
notes: also called Ho Ab P331_07I
B10: GpH7-B3 variant S337_15Y/GpL16-k0 (antibody, human IgG1, kappa)
heavy: not shown
light: B1 light
notes: also called Ho Ab S337_15Y
B11: GpH7-B3 variant T335_15Y/GpL16-k0 (antibody, human IgG1, kappa)
heavy: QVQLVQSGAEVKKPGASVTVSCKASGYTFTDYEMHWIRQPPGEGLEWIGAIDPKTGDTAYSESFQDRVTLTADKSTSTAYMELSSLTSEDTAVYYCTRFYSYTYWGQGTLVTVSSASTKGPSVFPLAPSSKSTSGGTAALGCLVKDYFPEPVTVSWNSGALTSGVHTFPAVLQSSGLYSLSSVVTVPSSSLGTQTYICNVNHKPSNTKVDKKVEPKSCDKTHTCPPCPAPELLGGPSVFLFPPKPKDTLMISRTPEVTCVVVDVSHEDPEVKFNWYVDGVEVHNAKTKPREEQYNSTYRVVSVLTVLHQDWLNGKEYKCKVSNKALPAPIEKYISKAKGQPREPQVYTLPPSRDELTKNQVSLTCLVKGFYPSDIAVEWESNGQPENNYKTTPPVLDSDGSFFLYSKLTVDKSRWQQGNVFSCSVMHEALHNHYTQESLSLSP
light: B1 light
notes: also called Ho Ab T335_15Y
B12: GpH7-B3 variant T335_19Q/GpL16-k0 (antibody, human IgG1, kappa)
heavy: not shown
light: B1 light
notes: also called Ho Ab T335_19Q
B13: GpH7-A5/GpH7-B3 variant A330_01G/GpL16-k0 (antibody, human IgG1, kappa)
heavy 1: not shown
heavy 2: not shown
light: B1 light
notes: also called He Ab A330_01G
B14: GpH7-B3 variant P238_04F/GpL16-k0 (antibody, human IgG1, kappa)
heavy: not shown
light: B1 light
notes: also called Ho Ab P238_04F
B15: GpH7-B3 variant P238_06M/GpL16-k0 (antibody, human IgG1, kappa)
heavy: not shown
light: B1 light
notes: also called Ho Ab P238_06M
B16: GpH7-B3 variant N325_20W/GpL16-k0 (antibody, human IgG1, kappa)
heavy: not shown
light: B1 light
notes: also called Ho Ab N325_20W
B17: GpH7-B3 variant P238_09D/GpL16-k0 (antibody, human IgG1, kappa)
heavy: not shown
light: B1 light
notes: also called Ho Ab P238_09D
B18: GpH7-B3 variant P331_03V/GpL16-k0 (antibody, human IgG1, kappa)
heavy: not shown
light: B1 light
notes: also called Ho Ab P331_03V
B19: GpH7-B3 variant S298_06M/GpL16-k0 (antibody, human IgG1, kappa)
heavy: not shown
light: B1 light
notes: also called Ho Ab S298_06M
B20: GpH7-B3 variant T335_16H/GpL16-k0 (antibody, human IgG1, kappa)
heavy: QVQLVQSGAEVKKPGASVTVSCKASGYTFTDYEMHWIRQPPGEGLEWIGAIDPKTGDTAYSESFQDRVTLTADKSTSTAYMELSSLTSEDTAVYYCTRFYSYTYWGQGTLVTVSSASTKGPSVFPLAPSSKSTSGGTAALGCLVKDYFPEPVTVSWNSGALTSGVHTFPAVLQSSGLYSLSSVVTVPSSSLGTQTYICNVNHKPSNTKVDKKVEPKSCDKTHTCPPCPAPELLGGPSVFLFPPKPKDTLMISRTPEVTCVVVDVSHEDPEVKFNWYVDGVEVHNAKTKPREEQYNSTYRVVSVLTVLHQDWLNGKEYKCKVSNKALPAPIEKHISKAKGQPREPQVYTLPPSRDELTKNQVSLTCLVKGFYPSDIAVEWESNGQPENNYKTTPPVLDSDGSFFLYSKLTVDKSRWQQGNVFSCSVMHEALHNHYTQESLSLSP
light: B1 light
notes: also called Ho Ab T335_16H
B21: GpH7-B3 variant S267_01G/GpL16-k0 (antibody, human IgG1, kappa)
heavy: not shown
light: B1 light
notes: also called Ho Ab S267_01G
B22: GpH7-B3 variant S239_06M/GpL16-k0 (antibody, human IgG1, kappa)
heavy: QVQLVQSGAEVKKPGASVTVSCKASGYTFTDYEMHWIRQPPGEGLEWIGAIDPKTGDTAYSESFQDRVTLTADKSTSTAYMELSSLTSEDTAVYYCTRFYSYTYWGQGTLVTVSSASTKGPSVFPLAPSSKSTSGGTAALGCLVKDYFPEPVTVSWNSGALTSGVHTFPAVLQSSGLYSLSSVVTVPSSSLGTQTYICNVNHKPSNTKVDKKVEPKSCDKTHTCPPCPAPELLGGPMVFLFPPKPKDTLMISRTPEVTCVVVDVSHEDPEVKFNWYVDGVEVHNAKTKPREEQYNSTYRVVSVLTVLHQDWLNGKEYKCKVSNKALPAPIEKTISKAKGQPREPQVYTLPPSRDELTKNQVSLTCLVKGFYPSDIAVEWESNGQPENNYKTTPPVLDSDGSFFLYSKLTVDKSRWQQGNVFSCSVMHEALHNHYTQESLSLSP
light: B1 light
notes: also called Ho Ab S239_06M
B23: GpH7-B3 variant P238_15Y/GpL16-k0 (antibody, human IgG1, kappa)
heavy: not shown
light: B1 light
notes: also called Ho Ab P238_15Y
B24: GpH7-B3 variant S324_06M/GpL16-k0 (antibody, human IgG1, kappa)
heavy: not shown
light: B1 light
notes: also called Ho Ab S324_06M
B25: GpH7-B3 variant S337_16H/GpL16-k0 (antibody, human IgG1, kappa)
heavy: not shown
light: B1 light
notes: also called Ho Ab S337_16H
B26: GpH7-B3 variant S239_10E/GpL16-k0 (antibody, human IgG1, kappa)
heavy: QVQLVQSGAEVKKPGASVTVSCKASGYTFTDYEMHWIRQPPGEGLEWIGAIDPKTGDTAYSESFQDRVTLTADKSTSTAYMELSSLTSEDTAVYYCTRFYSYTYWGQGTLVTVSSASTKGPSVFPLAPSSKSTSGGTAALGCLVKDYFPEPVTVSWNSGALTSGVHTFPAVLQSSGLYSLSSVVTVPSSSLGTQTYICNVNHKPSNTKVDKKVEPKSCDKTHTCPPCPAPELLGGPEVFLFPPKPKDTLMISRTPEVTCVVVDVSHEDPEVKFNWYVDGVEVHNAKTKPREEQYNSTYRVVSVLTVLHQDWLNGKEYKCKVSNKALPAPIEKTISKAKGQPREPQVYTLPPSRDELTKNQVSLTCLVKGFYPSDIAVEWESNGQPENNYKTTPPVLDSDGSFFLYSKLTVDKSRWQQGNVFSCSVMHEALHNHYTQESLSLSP
light: B1 light
notes: also called Ho Ab S239_10E
B27: GpH7-B3 variant T335_13S/GpL16-k0 (antibody, human IgG1, kappa)
heavy: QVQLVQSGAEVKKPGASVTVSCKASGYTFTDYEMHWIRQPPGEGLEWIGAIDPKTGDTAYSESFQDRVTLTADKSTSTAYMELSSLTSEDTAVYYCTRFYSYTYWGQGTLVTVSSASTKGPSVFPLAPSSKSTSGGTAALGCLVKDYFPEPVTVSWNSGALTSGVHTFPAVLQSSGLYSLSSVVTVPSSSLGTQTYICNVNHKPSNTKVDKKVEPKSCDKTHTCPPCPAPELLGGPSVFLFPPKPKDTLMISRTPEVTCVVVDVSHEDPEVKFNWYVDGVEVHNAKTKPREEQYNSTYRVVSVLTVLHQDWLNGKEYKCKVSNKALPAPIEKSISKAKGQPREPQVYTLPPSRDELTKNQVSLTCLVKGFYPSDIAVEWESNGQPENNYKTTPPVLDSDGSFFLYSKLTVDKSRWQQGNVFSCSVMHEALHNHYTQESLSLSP
light: B1 light
notes: also called Ho Ab T335_13S
B28: GpH7-B3 variant P331_10E/GpL16-k0 (antibody, human IgG1, kappa)
heavy: not shown
light: B1 light
notes: also called Ho Ab P331_10E

molecular target: T1, FcγRIIb extracellular domain with …; experiment: SPR (Biacore), relative binding
Protocol: Analysis of interaction between objective antibody and the FcγR was carried out using Biacore T100 (GE Healthcare). HBS-EP+ (GE Healthcare) was used as the running buffer, and the measurement temperature was set to 25° C. Chips produced by immobilizing the antigen peptide by the amine coupling method to a Series S Sencor Chip CM5 (GE Healthcare), or alternatively, chips produced by allowing preliminarily biotinylated antigen peptides to interact with and immobilize onto a Series S Sensor Chip SA (certified) (GE Healthcare) were used. Antibodies of interest were captured onto an antigen peptide-immobilized chip, and allowed to interact to each FcγR diluted with running buffer. To regenerate and repeatedly use the chip, the antibodies captured on the chip were washed off by reacting 10 mM glycine-HCl, pH 1.5.

Ho/Con_2b | He/Con_2b | Binder
159 % of HoCon Ab GpH7-B3/GpL16-k0 | – | B1
– | 124 % of HeCon Ab GpH7-A5/GpH7-B3/GpL16-k0 | B2
95 % of HoCon Ab GpH7-B3/GpL16-k0 | – | B3
100 % of HoCon Ab GpH7-B3/GpL16-k0 | – | B4
111 % of HoCon Ab GpH7-B3/GpL16-k0 | – | B5
61 % of HoCon Ab GpH7-B3/GpL16-k0 | – | B6
71.5 % of HoCon Ab GpH7-B3/GpL16-k0 | – | B7
– | 130 % of HeCon Ab GpH7-A5/GpH7-B3/GpL16-k0 | B8
63.3 % of HoCon Ab GpH7-B3/GpL16-k0 | – | B9
93.4 % of HoCon Ab GpH7-B3/GpL16-k0 | – | B10
104 % of HoCon Ab GpH7-B3/GpL16-k0 | – | B11
97.3 % of HoCon Ab GpH7-B3/GpL16-k0 | – | B12
– | 104 % of HeCon Ab GpH7-A5/GpH7-B3/GpL16-k0 | B13
209 % of HoCon Ab GpH7-B3/GpL16-k0 | – | B14
97.1 % of HoCon Ab GpH7-B3/GpL16-k0 | – | B15
44 % of HoCon Ab GpH7-B3/GpL16-k0 | – | B16
207 % of HoCon Ab GpH7-B3/GpL16-k0 | – | B17
86.6 % of HoCon Ab GpH7-B3/GpL16-k0 | – | B18
101 % of HoCon Ab GpH7-B3/GpL16-k0 | – | B19
97.2 % of HoCon Ab GpH7-B3/GpL16-k0 | – | B20
97 % of HoCon Ab GpH7-B3/GpL16-k0 | – | B21
84.3 % of HoCon Ab GpH7-B3/GpL16-k0 | – | B22
114 % of HoCon Ab GpH7-B3/GpL16-k0 | – | B23
104 % of HoCon Ab GpH7-B3/GpL16-k0 | – | B24
103 % of HoCon Ab GpH7-B3/GpL16-k0 | – | B25
175 % of HoCon Ab GpH7-B3/GpL16-k0 | – | B26
95.2 % of HoCon Ab GpH7-B3/GpL16-k0 | – | B27
92.3 % of HoCon Ab GpH7-B3/GpL16-k0 | – | B28
